The labels stand for the following.
T1: ADAMTS4 (human, UniProt O75173 213-685, limits assumed)
T1 sequence (looked up): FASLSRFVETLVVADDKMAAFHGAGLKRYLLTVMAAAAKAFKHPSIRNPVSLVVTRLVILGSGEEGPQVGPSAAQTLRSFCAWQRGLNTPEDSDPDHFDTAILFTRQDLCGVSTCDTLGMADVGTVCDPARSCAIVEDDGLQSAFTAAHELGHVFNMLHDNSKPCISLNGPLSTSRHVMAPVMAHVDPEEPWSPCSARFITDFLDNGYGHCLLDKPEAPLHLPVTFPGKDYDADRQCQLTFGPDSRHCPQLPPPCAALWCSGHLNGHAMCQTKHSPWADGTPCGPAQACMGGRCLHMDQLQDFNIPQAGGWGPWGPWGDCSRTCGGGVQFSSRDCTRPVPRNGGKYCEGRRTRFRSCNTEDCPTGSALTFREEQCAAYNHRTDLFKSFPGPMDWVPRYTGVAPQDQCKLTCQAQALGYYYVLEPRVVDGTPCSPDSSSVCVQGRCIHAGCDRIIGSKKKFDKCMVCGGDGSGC

T2: ADAMTS5 (human, UniProt Q9UNA0 262-622, limits assumed)
T2 sequence (looked up): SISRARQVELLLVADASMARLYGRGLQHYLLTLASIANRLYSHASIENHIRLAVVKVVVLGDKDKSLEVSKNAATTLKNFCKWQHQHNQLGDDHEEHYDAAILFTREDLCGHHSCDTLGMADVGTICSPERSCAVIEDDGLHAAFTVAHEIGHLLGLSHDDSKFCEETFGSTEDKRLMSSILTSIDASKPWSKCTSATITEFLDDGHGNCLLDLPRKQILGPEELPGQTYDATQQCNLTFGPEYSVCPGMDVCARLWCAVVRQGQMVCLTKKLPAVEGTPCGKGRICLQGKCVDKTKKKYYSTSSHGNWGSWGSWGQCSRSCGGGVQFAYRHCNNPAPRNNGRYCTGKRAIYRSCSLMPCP

B1: Variant A2M, bait region SEQ ID NO 105 (other)
chain: SVSGKPQYMVLVPSLLHTETTEKGCVLLSYLNETVTVSASLESVRGNRSLFTDLEAENDVLHCVAFAVPKSSSNEEVMFLTVQVKGPTQEFKKRTTVMVKNEDSLVFVQTDKSIYKPGQTVKFRVVSMDENFHPLNELIPLVYIQDPKGNRIAQWQSFQLEGGLKQFSFPLSSEPFQGSYKVVVQKKSGGRTEHPFTVEEFVLPKFEVQVTVPKIITILEEEMNVSVCGLYTYGKPVPGHVTVSICRKYSDASDCHGEDSQAFCEKFSGQLNSHGCFYQQVKTKVFQLKRKEYEMKLHTEAQIQEEGTVVELTGRQSSEITRTITKLSFVKVDSHFRQGIPFFGQVRLVDGKGVPIPNKVIFIRGNEANYYSNATTDEHGLVQFSINTTNVMGTSLTVRVNYKDRSPCYGYQWVSEEHEEAHHTAYLVFSPSKSFVHLEPMSHELPCGHTQTVQAHYILNGGTLLGLKKLSFYYLIMAKGGIVRTGTHGLLVKQEDMKGHFSISIPVKSDIAPVARLLIYAVLPTGDVIGDSAKYDVENCLANKVDLSFSPSQSLPASHAHLRVTAAPQSVCALRAVDQSVLLMKPDAELSASSVYNLLPEKDLTGFPGPLNDQDDEDCINRHNVYINGITYTPVSSTNEKDMYSFLEDMGLKAFTNSKIRKPKMCPQLEQYEMHGPEGLRVGGFKEGVEGEIEEGGGFKEGVEGKLRKYFPETWIWDLVVVNSAGVAEVGVTVPDTITEWKAGAFCLSEDAGLGISSTASLRAFQPFFVELTMPYSVIRGEAFTLKATVLNYLPKCIRVSVQLEASPAFLAVPVEKEQAPHCICANGRQTVSWAVTPKSLGNVNFTVSAEALESQELCGTEVPSVPEHGRKDTVIKPLLVEPEGLEKETTFNSLLCPSGGEVSEELSLKLPPNVVEESARASVSVLGDILGSAMQNTQNLLQMPYGCGEQNMVLFAPNIYVLDYLNETQQLTPEIKSKAIGYLNTGYQRQLNYKHYDGSYSTFGERYGRNQGNTWLTAFVLKTFAQARAYIFIDEAHITQALIWLSQRQKDNGCFRSSGSLLNNAIKGGVEDEVTLSAYITIALLEIPLTVTHPVVRNALFCLESAWKTAQEGDHGSHVYTKALLAYAFALAGNQDKRKEVLKSLNEEAVKKDNSVHWERPQKPKAPVGHFYEPQAPSAEVEMTSYVLLAYLTAQPAPTSEDLTSATNIVKWITKQQNAQGGFSSTQDTVVALHALSKYGAATFTRTGKAAQVTIQSSGTFSSKFQVDNNNRLLLQQVSLPELPGEYSMKVTGEGCVYLQTSLKYNILPEKEEFPFALGVQTLPQTCDEPKAHTSFQISLSVSYTGSRSASNMAIVDVKMVSGFIPLKPTVKMLERSNHVSRTEVSSNHVLIYLDKVSNQTLSLFFTVLQDVPVRDLKPAIVKVYDYYETDEFAIAEYNAPCSKDLGNADYKDDDDKGASHHHHHH
B2: Variant A2M, bait region SEQ ID NO 106 (other)
chain: SVSGKPQYMVLVPSLLHTETTEKGCVLLSYLNETVTVSASLESVRGNRSLFTDLEAENDVLHCVAFAVPKSSSNEEVMFLTVQVKGPTQEFKKRTTVMVKNEDSLVFVQTDKSIYKPGQTVKFRVVSMDENFHPLNELIPLVYIQDPKGNRIAQWQSFQLEGGLKQFSFPLSSEPFQGSYKVVVQKKSGGRTEHPFTVEEFVLPKFEVQVTVPKIITILEEEMNVSVCGLYTYGKPVPGHVTVSICRKYSDASDCHGEDSQAFCEKFSGQLNSHGCFYQQVKTKVFQLKRKEYEMKLHTEAQIQEEGTVVELTGRQSSEITRTITKLSFVKVDSHFRQGIPFFGQVRLVDGKGVPIPNKVIFIRGNEANYYSNATTDEHGLVQFSINTTNVMGTSLTVRVNYKDRSPCYGYQWVSEEHEEAHHTAYLVFSPSKSFVHLEPMSHELPCGHTQTVQAHYILNGGTLLGLKKLSFYYLIMAKGGIVRTGTHGLLVKQEDMKGHFSISIPVKSDIAPVARLLIYAVLPTGDVIGDSAKYDVENCLANKVDLSFSPSQSLPASHAHLRVTAAPQSVCALRAVDQSVLLMKPDAELSASSVYNLLPEKDLTGFPGPLNDQDDEDCINRHNVYINGITYTPVSSTNEKDMYSFLEDMGLKAFTNSKIRKPKMCPQLEQYEMHGPEGLRVGESESEGGFAGLPNGKEEEGLGSIPENFFGVKLRKYFPETWIWDLVVVNSAGVAEVGVTVPDTITEWKAGAFCLSEDAGLGISSTASLRAFQPFFVELTMPYSVIRGEAFTLKATVLNYLPKCIRVSVQLEASPAFLAVPVEKEQAPHCICANGRQTVSWAVTPKSLGNVNFTVSAEALESQELCGTEVPSVPEHGRKDTVIKPLLVEPEGLEKETTFNSLLCPSGGEVSEELSLKLPPNVVEESARASVSVLGDILGSAMQNTQNLLQMPYGCGEQNMVLFAPNIYVLDYLNETQQLTPEIKSKAIGYLNTGYQRQLNYKHYDGSYSTFGERYGRNQGNTWLTAFVLKTFAQARAYIFIDEAHITQALIWLSQRQKDNGCFRSSGSLLNNAIKGGVEDEVTLSAYITIALLEIPLTVTHPVVRNALFCLESAWKTAQEGDHGSHVYTKALLAYAFALAGNQDKRKEVLKSLNEEAVKKDNSVHWERPQKPKAPVGHFYEPQAPSAEVEMTSYVLLAYLTAQPAPTSEDLTSATNIVKWITKQQNAQGGFSSTQDTVVALHALSKYGAATFTRTGKAAQVTIQSSGTFSSKFQVDNNNRLLLQQVSLPELPGEYSMKVTGEGCVYLQTSLKYNILPEKEEFPFALGVQTLPQTCDEPKAHTSFQISLSVSYTGSRSASNMAIVDVKMVSGFIPLKPTVKMLERSNHVSRTEVSSNHVLIYLDKVSNQTLSLFFTVLQDVPVRDLKPAIVKVYDYYETDEFAIAEYNAPCSKDLGNADYKDDDDKGASHHHHHH
B3: Variant A2M, bait region SEQ ID NO 107 (other)
chain: SVSGKPQYMVLVPSLLHTETTEKGCVLLSYLNETVTVSASLESVRGNRSLFTDLEAENDVLHCVAFAVPKSSSNEEVMFLTVQVKGPTQEFKKRTTVMVKNEDSLVFVQTDKSIYKPGQTVKFRVVSMDENFHPLNELIPLVYIQDPKGNRIAQWQSFQLEGGLKQFSFPLSSEPFQGSYKVVVQKKSGGRTEHPFTVEEFVLPKFEVQVTVPKIITILEEEMNVSVCGLYTYGKPVPGHVTVSICRKYSDASDCHGEDSQAFCEKFSGQLNSHGCFYQQVKTKVFQLKRKEYEMKLHTEAQIQEEGTVVELTGRQSSEITRTITKLSFVKVDSHFRQGIPFFGQVRLVDGKGVPIPNKVIFIRGNEANYYSNATTDEHGLVQFSINTTNVMGTSLTVRVNYKDRSPCYGYQWVSEEHEEAHHTAYLVFSPSKSFVHLEPMSHELPCGHTQTVQAHYILNGGTLLGLKKLSFYYLIMAKGGIVRTGTHGLLVKQEDMKGHFSISIPVKSDIAPVARLLIYAVLPTGDVIGDSAKYDVENCLANKVDLSFSPSQSLPASHAHLRVTAAPQSVCALRAVDQSVLLMKPDAELSASSVYNLLPEKDLTGFPGPLNDQDDEDCINRHNVYINGITYTPVSSTNEKDMYSFLEDMGLKAFTNSKIRKPKMCPQLEQYEMHGPEGLRVGIPENFFGVTSEDLVVQEAIPMSIPKLRKYFPETWIWDLVVVNSAGVAEVGVTVPDTITEWKAGAFCLSEDAGLGISSTASLRAFQPFFVELTMPYSVIRGEAFTLKATVLNYLPKCIRVSVQLEASPAFLAVPVEKEQAPHCICANGRQTVSWAVTPKSLGNVNFTVSAEALESQELCGTEVPSVPEHGRKDTVIKPLLVEPEGLEKETTFNSLLCPSGGEVSEELSLKLPPNVVEESARASVSVLGDILGSAMQNTQNLLQMPYGCGEQNMVLFAPNIYVLDYLNETQQLTPEIKSKAIGYLNTGYQRQLNYKHYDGSYSTFGERYGRNQGNTWLTAFVLKTFAQARAYIFIDEAHITQALIWLSQRQKDNGCFRSSGSLLNNAIKGGVEDEVTLSAYITIALLEIPLTVTHPVVRNALFCLESAWKTAQEGDHGSHVYTKALLAYAFALAGNQDKRKEVLKSLNEEAVKKDNSVHWERPQKPKAPVGHFYEPQAPSAEVEMTSYVLLAYLTAQPAPTSEDLTSATNIVKWITKQQNAQGGFSSTQDTVVALHALSKYGAATFTRTGKAAQVTIQSSGTFSSKFQVDNNNRLLLQQVSLPELPGEYSMKVTGEGCVYLQTSLKYNILPEKEEFPFALGVQTLPQTCDEPKAHTSFQISLSVSYTGSRSASNMAIVDVKMVSGFIPLKPTVKMLERSNHVSRTEVSSNHVLIYLDKVSNQTLSLFFTVLQDVPVRDLKPAIVKVYDYYETDEFAIAEYNAPCSKDLGNADYKDDDDKGASHHHHHH

The target of one assay is T1, ADAMTS4. Put plainly: cell-based or functional assay.
Take B1: the “Protease Inhibition (% of WT)” value was 94 % of WT.
The same measure, in the same setting: the value for B2 was 104 % of WT; that for B3 was 92 % of WT.

A further assay has as its target MMP13 (human, UniProt P45452 104-471, limits assumed). Put plainly: cell-based or functional assay.
Consider B1, for which the “Protease Inhibition (% of WT)” value was 164 % of WT.
As to B2, the “Protease Inhibition (% of WT)” value was 16 % of WT.
Same read-out and setting: the result for B3 reads 136 % of WT.

For another assay, the target named is T2, ADAMTS5. Put plainly: cell-based or functional assay.
With B1, the “Protease Inhibition (% of WT)” value was 115 % of WT.
Same read-out and setting: the value for B2 was 93 % of WT; that for B3 was 108 % of WT.
